Measured values from the supplement of paper PMC10724198.
± gives the standard deviation of the averaged measurements.

Key:
Saccharomyces cerevisiae [1] = experiment: protein stability index of tFT-peptide fusion (C-terminal peptide) (PSI (0-1 scale)); higher = more stable (slower turnover); details: genetic background: wild type; temperature: 30 C
Saccharomyces cerevisiae [2] = experiment: as above
Method: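 MPS profiling in S. cerevisiae of the tFT-X12 degron library: putative degron peptides plus stable controls, 12 aa, fused to the C-terminus of a sfGFP-mCherry timer. Cells are FACS-sorted into 8 mCherry/sfGFP bins and deep-sequenced. PSI runs from 0 (unstable) to 1 (stable). Backgrounds are wild type, das1Δ and doa10Δ at 30 °C, and wild type, das1Δ, cdc34-1 and cdc53-1 at 37 °C; 2-3 technical replicates each.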

[3] = genetic background: cdc34-1, temperature: 37 C
[4] = genetic background: cdc53-1, temperature: 37 C
[5] = genetic background: das1 deletion, temperature: 30 C
[6] = genetic background: das1 deletion, temperature: 37 C
[7] = genetic background: doa10 deletion, temperature: 30 C
[8] = genetic background: wild type, temperature: 30 C
[9] = genetic background: wild type, temperature: 37 C
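Also: PSI is a weighted mean of sequencing reads over stability bins, variants kept only with over 10 reads, mCherry proximal and sfGFP distal, peptide attached via GGGS linker.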

## GLCSFPCSSCRL
Saccharomyces cerevisiae [1]
  protein stability index: 0.756 ± 0.052
Saccharomyces cerevisiae [2]; [3]
  protein stability index: 0.875 ± 0.023
Saccharomyces cerevisiae [2]; [4]
  protein stability index: 0.8868 ± 0.0025
Saccharomyces cerevisiae [2]; [5]
  protein stability index: 0.76 ± 0.018
Saccharomyces cerevisiae [2]; [6]
  protein stability index: 0.812 ± 0.028
Saccharomyces cerevisiae [2]; [7]
  protein stability index: 0.772 ± 0.024
Saccharomyces cerevisiae [2]; [8]
  protein stability index: 0.772 ± 0.054
Saccharomyces cerevisiae [2]; [9]
  protein stability index: 0.836 ± 0.021

## CSWMRSRMWVGG
Saccharomyces cerevisiae [1]
  protein stability index: 0.3994 ± 0.0039
Saccharomyces cerevisiae [2]; [3]
  protein stability index: 0.33 ± 0.051
Saccharomyces cerevisiae [2]; [4]
  protein stability index: 0.419 ± 0.03
Saccharomyces cerevisiae [2]; [5]
  protein stability index: 0.422 ± 0.0063
Saccharomyces cerevisiae [2]; [6]
  protein stability index: 0.36 ± 0.0087
Saccharomyces cerevisiae [2]; [7]
  protein stability index: 0.454 ± 0.014
Saccharomyces cerevisiae [2]; [8]
  protein stability index: 0.409 ± 0.013
Saccharomyces cerevisiae [2]; [9]
  protein stability index: 0.346 ± 0.0053

## FLFVFLGVYGHV
Saccharomyces cerevisiae [1]
  protein stability index: 0.404 ± 0.012
Saccharomyces cerevisiae [2]; [3]
  protein stability index: 0.281 ± 0.02
Saccharomyces cerevisiae [2]; [4]
  protein stability index: 0.409 ± 0.018
Saccharomyces cerevisiae [2]; [5]
  protein stability index: 0.271 ± 0.044
Saccharomyces cerevisiae [2]; [6]
  protein stability index: 0.494 ± 0.027
Saccharomyces cerevisiae [2]; [7]
  protein stability index: 0.27 ± 0.0047
Saccharomyces cerevisiae [2]; [8]
  protein stability index: 0.288 ± 0.029
Saccharomyces cerevisiae [2]; [9]
  protein stability index: 0.46 ± 0.0054

## SLCWSYVWVSCP
Saccharomyces cerevisiae [1]
  protein stability index: 0.334 ± 0.018
Saccharomyces cerevisiae [2]; [3]
  protein stability index: 0.264 ± 0.035
Saccharomyces cerevisiae [2]; [4]
  protein stability index: 0.302 ± 0.007
Saccharomyces cerevisiae [2]; [5]
  protein stability index: 0.247 ± 0.024
Saccharomyces cerevisiae [2]; [6]
  protein stability index: 0.375 ± 0.0093
Saccharomyces cerevisiae [2]; [7]
  protein stability index: 0.21 ± 0.0079
Saccharomyces cerevisiae [2]; [8]
  protein stability index: 0.241 ± 0.022
Saccharomyces cerevisiae [2]; [9]
  protein stability index: 0.343 ± 0.0047

## CYSRRGCIYFFF
Saccharomyces cerevisiae [1]
  protein stability index: 0.192 ± 0.037
Saccharomyces cerevisiae [2]; [3]
  protein stability index: 0.564 ± 0.029
Saccharomyces cerevisiae [2]; [4]
  protein stability index: 0.693 ± 0.009
Saccharomyces cerevisiae [2]; [5]
  protein stability index: 0.583 ± 0.016
Saccharomyces cerevisiae [2]; [6]
  protein stability index: 0.698 ± 0.0099
Saccharomyces cerevisiae [2]; [7]
  protein stability index: 0.0971 ± 0.018
Saccharomyces cerevisiae [2]; [8]
  protein stability index: 0.101 ± 0.022
Saccharomyces cerevisiae [2]; [9]
  protein stability index: 0.157 ± 0.0033

## ILVYFQAHAIKI
Saccharomyces cerevisiae [1]
  protein stability index: 0.129 ± 0.0092
Saccharomyces cerevisiae [2]; [3]
  protein stability index: 0.1592 ± 0.00018
Saccharomyces cerevisiae [2]; [4]
  protein stability index: 0.189 ± 0.015
Saccharomyces cerevisiae [2]; [5]
  protein stability index: 0.0937 ± 0.022
Saccharomyces cerevisiae [2]; [6]
  protein stability index: 0.199 ± 0.0036
Saccharomyces cerevisiae [2]; [7]
  protein stability index: 0.0645 ± 0.012
Saccharomyces cerevisiae [2]; [8]
  protein stability index: 0.0874 ± 0.027
Saccharomyces cerevisiae [2]; [9]
  protein stability index: 0.202 ± 0.01

## FWFVSVFIVFFC
Saccharomyces cerevisiae [1]
  protein stability index: 0.223 ± 0.026
Saccharomyces cerevisiae [2]; [3]
  protein stability index: 0.185 ± 0.0033
Saccharomyces cerevisiae [2]; [4]
  protein stability index: 0.26 ± 0.021
Saccharomyces cerevisiae [2]; [5]
  protein stability index: 0.222 ± 0.043
Saccharomyces cerevisiae [2]; [6]
  protein stability index: 0.337 ± 0.022
Saccharomyces cerevisiae [2]; [7]
  protein stability index: 0.179 ± 0.018
Saccharomyces cerevisiae [2]; [8]
  protein stability index: 0.164 ± 0.034
Saccharomyces cerevisiae [2]; [9]
  protein stability index: 0.279 ± 0.018

## SLGRYVSFLFVV
Saccharomyces cerevisiae [1]
  protein stability index: 0.202 ± 0.004
Saccharomyces cerevisiae [2]; [3]
  protein stability index: 0.433 ± 0.02
Saccharomyces cerevisiae [2]; [4]
  protein stability index: 0.6623 ± 0.0014
Saccharomyces cerevisiae [2]; [5]
  protein stability index: 0.565 ± 0.024
Saccharomyces cerevisiae [2]; [6]
  protein stability index: 0.668 ± 0.024
Saccharomyces cerevisiae [2]; [7]
  protein stability index: 0.106 ± 0.0061
Saccharomyces cerevisiae [2]; [8]
  protein stability index: 0.0996 ± 0.016
Saccharomyces cerevisiae [2]; [9]
  protein stability index: 0.153 ± 0.019

## GIIRVSSQVIVR
Saccharomyces cerevisiae [1]
  protein stability index: 0.523 ± 0.035
Saccharomyces cerevisiae [2]; [3]
  protein stability index: 0.565 ± 0.0072
Saccharomyces cerevisiae [2]; [4]
  protein stability index: 0.607 ± 0.018
Saccharomyces cerevisiae [2]; [5]
  protein stability index: 0.445 ± 0.026
Saccharomyces cerevisiae [2]; [6]
  protein stability index: 0.617 ± 0.0065
Saccharomyces cerevisiae [2]; [7]
  protein stability index: 0.422 ± 0.012
Saccharomyces cerevisiae [2]; [8]
  protein stability index: 0.443 ± 0.0097
Saccharomyces cerevisiae [2]; [9]
  protein stability index: 0.5905 ± 0.0054

## TFCVLLQFCVLV
Saccharomyces cerevisiae [2]; [3]
  protein stability index: 0.365 ± 0.039
Saccharomyces cerevisiae [2]; [4]
  protein stability index: 0.398 ± 0.017
Saccharomyces cerevisiae [2]; [5]
  protein stability index: 0.308 ± 0.028
Saccharomyces cerevisiae [2]; [6]
  protein stability index: 0.426 ± 0.02
Saccharomyces cerevisiae [2]; [7]
  protein stability index: 0.3058 ± 0.0007
Saccharomyces cerevisiae [2]; [8]
  protein stability index: 0.315 ± 0.012
Saccharomyces cerevisiae [2]; [9]
  protein stability index: 0.411 ± 0.0012

## FLFVSVFHPALL
Saccharomyces cerevisiae [2]; [3]
  protein stability index: 0.6421 ± 0.0042
Saccharomyces cerevisiae [2]; [4]
  protein stability index: 0.70858 ± 0.0003
Saccharomyces cerevisiae [2]; [5]
  protein stability index: 0.593 ± 0.059
Saccharomyces cerevisiae [2]; [6]
  protein stability index: 0.6911 ± 0.0062
Saccharomyces cerevisiae [2]; [7]
  protein stability index: 0.3787 ± 0.0024
Saccharomyces cerevisiae [2]; [8]
  protein stability index: 0.409 ± 0.019
Saccharomyces cerevisiae [2]; [9]
  protein stability index: 0.601 ± 0.013

## IMWAFFMFCSFL
Saccharomyces cerevisiae [2]; [3]
  protein stability index: 0.498 ± 0.067
Saccharomyces cerevisiae [2]; [4]
  protein stability index: 0.53764 ± 0.00031
Saccharomyces cerevisiae [2]; [5]
  protein stability index: 0.428 ± 0.057
Saccharomyces cerevisiae [2]; [6]
  protein stability index: 0.5564 ± 0.0029
Saccharomyces cerevisiae [2]; [7]
  protein stability index: 0.37 ± 0.0076
Saccharomyces cerevisiae [2]; [8]
  protein stability index: 0.367 ± 0.026
Saccharomyces cerevisiae [2]; [9]
  protein stability index: 0.481 ± 0.044
